Test results: patent US20180346600A1
Where two headings read alike, the source gives them in different places.

Tests used:
Test in all cases: HEK293-F co-expression, Protein A purification, non-reducing SDS-PAGE densitometry
[1] = molecular target: scFv-FcCH3A, A107 (K370E/K409W) (human) [IgG part: P0DOX5]
[2] = molecular target: scFv-FcCH3A, A107w/oW-VT (K370E) (human) [IgG part: P0DOX5]
[3] = molecular target: scFv-FcCH3A, A107w/oW-VT (K370E) (human) [IgG part: P0DOX5]; remark: listed apart in the source
[4] = molecular target: scFv-FcCH3A, A109 (K370M/K409W) (human) [IgG part: P0DOX5]
[5] = molecular target: scFv-FcCH3A, A109w/oW-VT (K370M) (human) [IgG part: P0DOX5]
[6] = molecular target: scFv-FcCH3A, A146w/oW-VT (K370D) (human) [IgG part: P0DOX5]
[7] = molecular target: scFv-FcCH3A, A205 (E357D/S364W/K370E) (human) [IgG part: P0DOX5]
[8] = molecular target: scFv-FcCH3A, A210 (E357A/S364Y/K370E) (human) [IgG part: P0DOX5]
[9] = molecular target: scFv-FcCH3A, A216 (E357G/S364W/K370E) (human) [IgG part: P0DOX5]
[10] = molecular target: scFv-FcCH3A, A241 (E357N/S364W/K370E) (human) [IgG part: P0DOX5]
[11] = molecular target: scFv-FcCH3A, B121 (D399E/K409W) (human) [IgG part: P0DOX5]
[12] = molecular target: scFv-FcCH3A, B135 (D399L/K409W) (human) [IgG part: P0DOX5]
[13] = molecular target: scFv-FcCH3A, B168 (D399L/K409W) (human) [IgG part: P0DOX5]
[14] = molecular target: scFv-FcCH3A, B168w/oW-VT (D399L) (human) [IgG part: P0DOX5]
[15] = molecular target: scFv-FcCH3A, B168w/oW-VT (D399L) (human) [IgG part: P0DOX5]; remark: listed apart in the source
[16] = molecular target: scFv-FcCH3A, B212 (K392I/D399L) (human) [IgG part: P0DOX5]
[17] = molecular target: scFv-FcCH3A, B215 (K392R/K409R/D399L) (human) [IgG part: P0DOX5]
[18] = molecular target: scFv-FcCH3A, B235 (K392C/D399L) (human) [IgG part: P0DOX5]
[19] = molecular target: scFv-FcCH3A, B239 (K392L/D399L) (human) [IgG part: P0DOX5]
[20] = molecular target: scFv-FcCH3A, B240 (K392S/K409R/D399L) (human) [IgG part: P0DOX5]
[21] = molecular target: scFv-FcCH3A, B256 (K392N/D399L) (human) [IgG part: P0DOX5]
[22] = molecular target: scFv-FcCH3A, EW-RVT (K360E/K409W) (human)
[23] = molecular target: scFv-FcCH3A, EW-RVT (K360E/K409W) (human); remark: listed apart in the source
[24] = molecular target: scFv-FcCH3A, W-VT (K409W) (human) [IgG part: P0DOX5]

scFv-FcCH3A, A107 (K370E/K409W) (from UniProt P0DOX5 227-449) (Fc fusion)
(scFv-Fc)2 (homodimer)(%) [1]: 4.2%

scFv-FcCH3A, A107w/oW-VT (K370E) (from UniProt P0DOX5 227-449) (Fc fusion)
(scFv-Fc)2 (homodimer)(%) [2]: 21.3% | (scFv-Fc)2 (homodimer)(%) [3]: 21.3%

scFv-FcCH3A, A109 (K370M/K409W) (from UniProt P0DOX5 227-449) (Fc fusion)
(scFv-Fc)2 (homodimer)(%) [4]: 0.5%

scFv-FcCH3A, A109w/oW-VT (K370M) (from UniProt P0DOX5 227-449) (Fc fusion)
(scFv-Fc)2 (homodimer)(%) [5]: 5.6%

scFv-FcCH3A, A146w/oW-VT (K370D) (from UniProt P0DOX5 227-449) (Fc fusion)
(scFv-Fc)2 (homodimer)(%) [6]: 4.6%

scFv-FcCH3A, A205 (E357D/S364W/K370E) (from UniProt P0DOX5 227-449) (Fc fusion)
(scFv-Fc)2 (homodimer)(%) [7]: 1%

scFv-FcCH3A, A210 (E357A/S364Y/K370E) (from UniProt P0DOX5 227-449) (Fc fusion)
(scFv-Fc)2 (homodimer)(%) [8]: 9.9%

scFv-FcCH3A, A216 (E357G/S364W/K370E) (from UniProt P0DOX5 227-449) (Fc fusion)
(scFv-Fc)2 (homodimer)(%) [9]: 1.5%

scFv-FcCH3A, A241 (E357N/S364W/K370E) (from UniProt P0DOX5 227-449) (Fc fusion)
(scFv-Fc)2 (homodimer)(%) [10]: 15.7%

scFv-FcCH3A, B121 (D399E/K409W) (from UniProt P0DOX5 227-449) (Fc fusion)
(scFv-Fc)2 (homodimer)(%) [11]: 1.5%

scFv-FcCH3A, B135 (D399L/K409W) (from UniProt P0DOX5 227-449) (Fc fusion)
(scFv-Fc)2 (homodimer)(%) [12]: 4.1%

scFv-FcCH3A, B168 (D399L/K409W) (from UniProt P0DOX5 227-449) (Fc fusion)
(scFv-Fc)2 (homodimer)(%) [13]: 1.2%

scFv-FcCH3A, B168w/oW-VT (D399L) (from UniProt P0DOX5 227-449) (Fc fusion)
(scFv-Fc)2 (homodimer)(%) [14]: 1.6% | (scFv-Fc)2 (homodimer)(%) [15]: 1.5%

scFv-FcCH3A, B212 (K392I/D399L) (from UniProt P0DOX5 227-449) (Fc fusion)
(scFv-Fc)2 (homodimer)(%) [16]: 0.9%

scFv-FcCH3A, B215 (K392R/K409R/D399L) (from UniProt P0DOX5 227-449) (Fc fusion)
(scFv-Fc)2 (homodimer)(%) [17]: 1.9%

scFv-FcCH3A, B235 (K392C/D399L) (from UniProt P0DOX5 227-449) (Fc fusion)
(scFv-Fc)2 (homodimer)(%) [18]: 3.7%

scFv-FcCH3A, B239 (K392L/D399L) (from UniProt P0DOX5 227-449) (Fc fusion)
(scFv-Fc)2 (homodimer)(%) [19]: 3.4%

scFv-FcCH3A, B240 (K392S/K409R/D399L) (from UniProt P0DOX5 227-449) (Fc fusion)
(scFv-Fc)2 (homodimer)(%) [20]: 4.8%

scFv-FcCH3A, B256 (K392N/D399L) (from UniProt P0DOX5 227-449) (Fc fusion)
(scFv-Fc)2 (homodimer)(%) [21]: 3.9%

scFv-FcCH3A, EW-RVT (K360E/K409W) (Fc fusion)
(scFv-Fc)2 (homodimer)(%) [22]: 0.5% | (scFv-Fc)2 (homodimer)(%) [23]: 0.5%

scFv-FcCH3A, W-VT (K409W) (from UniProt P0DOX5 227-449) (Fc fusion)
(scFv-Fc)2 (homodimer)(%) [24]: 1.4%
